Reference: article PMC9408938

How the values were obtained:
[1] = target: T1, Human interferon-gamma receptor chain-1 (human (endogenous in WISH)) (UniProt P15260)
T1 sequence: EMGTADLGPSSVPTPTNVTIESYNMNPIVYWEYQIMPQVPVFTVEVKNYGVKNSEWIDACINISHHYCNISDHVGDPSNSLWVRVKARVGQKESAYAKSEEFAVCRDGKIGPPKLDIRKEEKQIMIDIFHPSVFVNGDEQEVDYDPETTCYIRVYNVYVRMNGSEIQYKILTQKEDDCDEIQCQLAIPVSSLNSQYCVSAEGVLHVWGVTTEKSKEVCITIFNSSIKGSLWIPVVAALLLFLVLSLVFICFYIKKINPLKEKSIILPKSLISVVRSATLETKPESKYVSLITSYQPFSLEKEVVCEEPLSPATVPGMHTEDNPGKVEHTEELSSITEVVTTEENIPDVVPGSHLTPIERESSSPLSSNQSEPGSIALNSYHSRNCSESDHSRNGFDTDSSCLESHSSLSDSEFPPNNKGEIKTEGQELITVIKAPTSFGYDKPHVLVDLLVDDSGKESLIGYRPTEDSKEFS

[2] = target: T1, Human interferon-gamma receptor chain-1 (human (endogenous in WISH)); remark: listed apart in the source

Chain of Human interferon-gamma (P01579 24-161): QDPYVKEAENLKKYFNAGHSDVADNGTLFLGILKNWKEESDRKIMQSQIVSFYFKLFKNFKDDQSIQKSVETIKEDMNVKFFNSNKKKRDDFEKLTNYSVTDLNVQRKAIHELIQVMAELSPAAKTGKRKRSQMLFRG

- antiproliferative activity of hIFN γ (15 ng/mL) by modified kynurenine bioassay, optical density at 490 nm, WISH cells cultured with 30 mM NaClO3 [1]: 0.051 OD 490 nm
- antiproliferative activity of hIFN γ (15 ng/mL) by modified kynurenine bioassay, optical density at 490 nm, untreated WISH cells [1]: 0.377 OD 490 nm
- lowering of the biological activity (hIFN γ signal, kynurenine bioassay) in WISH cells cultured with NaClO3 against untreated cells [1]: 86%
- ratio of pSTAT1 to total STAT1 (Western blot, normalised to β-actin) in hIFN γ-stimulated WISH cells cultured under standard conditions (control) (ratio pSTAT1/STAT1) [2]: 3.14
- ratio of pSTAT1 to total STAT1 (Western blot, normalised to β-actin) in hIFN γ-stimulated WISH cells cultured with 30 mM NaClO3 (reduced HS sulfation) (ratio pSTAT1/STAT1) [2]: 1.7
Substance: Human interferon-gamma (from UniProt P01579 24-161) (ligand)
